Data as given in patent US20140087995A1 (published 2014).
Numbered stars: 1 amine (or outer) side, 2 acyl side, 3 side chain; on linkers, the order of the positions; unused ones are H or OH. Bridge positions count the residues as written; N and C are the ends. Side chains are listed from the residue outwards. Ends that are not written are not given here. * marks the point of attachment. C20 diacid = O=C(O)CCCCCCCCCCCCCCCCCCC(=O)*; γGlu = O=C(O)[C@H](CCC(=O)[*:2])N[*:1]; AEEA = NCCOCCOCC(=O)O

B1: N^ε1-[2-[2-[2-[[2-[2-[2-[[(4S)-4-carboxy-4-(19-carboxynonadecanoylamino)butanoyl]amino]ethoxy]ethoxy]acetyl]amino]ethoxy]ethoxy]acetyl]-[Arg17,Pro21,Pro27,Glu35 … (peptide)
peptide: K([AEEA-AEEA-γGlu-C20 diacid])CNTATCATQRLANFLRHSSPNFGAIPSSTNVGSETY-NH2
modifications: disulfide 2-7; N-terminus assumed
SMILES: CC[C@H](C)[C@H](NC(=O)[C@H](C)NC(=O)CNC(=O)[C@H](Cc1ccccc1)NC(=O)[C@H](CC(N)=O)NC(=O)[C@@H]1CCCN1C(=O)[C@H](CO)NC(=O)[C@H](CO)NC(=O)[C@H](Cc1c[nH]cn1)NC(=O)[C@H](CCCNC(=N)N)NC(=O)[C@H](CC(C)C)NC(=O)[C@H](Cc1ccccc1)NC(=O)[C@H](CC(N)=O)NC(=O)[C@H](C)NC(=O)[C@H](CC(C)C)NC(=O)[C@H](CCCNC(=N)N)NC(=O)[C@H](CCC(N)=O)NC(=O)[C@@H](NC(=O)[C@H](C)NC(=O)[C@@H]1CSSC[C@H](NC(=O)[C@@H](N)CCCCNC(=O)COCCOCCNC(=O)COCCOCCNC(=O)CC[C@H](NC(=O)CCCCCCCCCCCCCCCCCCC(=O)O)C(=O)O)C(=O)N[C@@H](CC(N)=O)C(=O)N[C@@H]([C@@H](C)O)C(=O)N[C@@H](C)C(=O)N[C@@H]([C@@H](C)O)C(=O)N1)[C@@H](C)O)C(=O)N1CCC[C@H]1C(=O)N[C@@H](CO)C(=O)N[C@@H](CO)C(=O)N[C@H](C(=O)N[C@@H](CC(N)=O)C(=O)N[C@H](C(=O)NCC(=O)N[C@@H](CO)C(=O)N[C@@H](CCC(=O)O)C(=O)N[C@H](C(=O)N[C@@H](Cc1ccc(O)cc1)C(N)=O)[C@@H](C)O)C(C)C)[C@@H](C)O
notes: Synthetic analogue; also called compound 25
B2: N^ε1-[(4S)-4-carboxy-4-(19-carboxynonadecanoylamino)butanoyl]-[Arg17,Pro21,Pro27,Lys35]-h-amylin (peptide)
peptide: K([γGlu-C20 diacid])CNTATCATQRLANFLRHSSPNFGAIPSSTNVGSKTY-NH2
modifications: disulfide 2-7; N-terminus assumed
SMILES: CC[C@H](C)[C@H](NC(=O)[C@H](C)NC(=O)CNC(=O)[C@H](Cc1ccccc1)NC(=O)[C@H](CC(N)=O)NC(=O)[C@@H]1CCCN1C(=O)[C@H](CO)NC(=O)[C@H](CO)NC(=O)[C@H](Cc1c[nH]cn1)NC(=O)[C@H](CCCNC(=N)N)NC(=O)[C@H](CC(C)C)NC(=O)[C@H](Cc1ccccc1)NC(=O)[C@H](CC(N)=O)NC(=O)[C@H](C)NC(=O)[C@H](CC(C)C)NC(=O)[C@H](CCCNC(=N)N)NC(=O)[C@H](CCC(N)=O)NC(=O)[C@@H](NC(=O)[C@H](C)NC(=O)[C@@H]1CSSC[C@H](NC(=O)[C@@H](N)CCCCNC(=O)CC[C@H](NC(=O)CCCCCCCCCCCCCCCCCCC(=O)O)C(=O)O)C(=O)N[C@@H](CC(N)=O)C(=O)N[C@@H]([C@@H](C)O)C(=O)N[C@@H](C)C(=O)N[C@@H]([C@@H](C)O)C(=O)N1)[C@@H](C)O)C(=O)N1CCC[C@H]1C(=O)N[C@@H](CO)C(=O)N[C@@H](CO)C(=O)N[C@H](C(=O)N[C@@H](CC(N)=O)C(=O)N[C@H](C(=O)NCC(=O)N[C@@H](CO)C(=O)N[C@@H](CCCCN)C(=O)N[C@H](C(=O)N[C@@H](Cc1ccc(O)cc1)C(N)=O)[C@@H](C)O)C(C)C)[C@@H](C)O
notes: Synthetic analogue; also called compound 35
B3: N^ε1-[(4S)-4-carboxy-4-(19-carboxynonadecanoylamino)butanoyl]-[Arg17,Pro21,Pro27,Glu35]-h-amylin (peptide)
peptide: K([γGlu-C20 diacid])CNTATCATQRLANFLRHSSPNFGAIPSSTNVGSETY-NH2
modifications: disulfide 2-7; N-terminus assumed
SMILES: CC[C@H](C)[C@H](NC(=O)[C@H](C)NC(=O)CNC(=O)[C@H](Cc1ccccc1)NC(=O)[C@H](CC(N)=O)NC(=O)[C@@H]1CCCN1C(=O)[C@H](CO)NC(=O)[C@H](CO)NC(=O)[C@H](Cc1c[nH]cn1)NC(=O)[C@H](CCCNC(=N)N)NC(=O)[C@H](CC(C)C)NC(=O)[C@H](Cc1ccccc1)NC(=O)[C@H](CC(N)=O)NC(=O)[C@H](C)NC(=O)[C@H](CC(C)C)NC(=O)[C@H](CCCNC(=N)N)NC(=O)[C@H](CCC(N)=O)NC(=O)[C@@H](NC(=O)[C@H](C)NC(=O)[C@@H]1CSSC[C@H](NC(=O)[C@@H](N)CCCCNC(=O)CC[C@H](NC(=O)CCCCCCCCCCCCCCCCCCC(=O)O)C(=O)O)C(=O)N[C@@H](CC(N)=O)C(=O)N[C@@H]([C@@H](C)O)C(=O)N[C@@H](C)C(=O)N[C@@H]([C@@H](C)O)C(=O)N1)[C@@H](C)O)C(=O)N1CCC[C@H]1C(=O)N[C@@H](CO)C(=O)N[C@@H](CO)C(=O)N[C@H](C(=O)N[C@@H](CC(N)=O)C(=O)N[C@H](C(=O)NCC(=O)N[C@@H](CO)C(=O)N[C@@H](CCC(=O)O)C(=O)N[C@H](C(=O)N[C@@H](Cc1ccc(O)cc1)C(N)=O)[C@@H](C)O)C(C)C)[C@@H](C)O
notes: Synthetic analogue; also called compound 27
B4: N^ε1-[2-[2-[2-[[(4S)-4-carboxy-4-(19-carboxynonadecanoylamino)butanoyl]amino]ethoxy]ethoxy]acetyl]-[Arg17,Pro21,Pro27,Pro31]-h-amylin (peptide)
peptide: K([AEEA-γGlu-C20 diacid])CNTATCATQRLANFLRHSSPNFGAIPSSTPVGSNTY-NH2
modifications: disulfide 2-7; N-terminus assumed
SMILES: CC[C@H](C)[C@H](NC(=O)[C@H](C)NC(=O)CNC(=O)[C@H](Cc1ccccc1)NC(=O)[C@H](CC(N)=O)NC(=O)[C@@H]1CCCN1C(=O)[C@H](CO)NC(=O)[C@H](CO)NC(=O)[C@H](Cc1c[nH]cn1)NC(=O)[C@H](CCCNC(=N)N)NC(=O)[C@H](CC(C)C)NC(=O)[C@H](Cc1ccccc1)NC(=O)[C@H](CC(N)=O)NC(=O)[C@H](C)NC(=O)[C@H](CC(C)C)NC(=O)[C@H](CCCNC(=N)N)NC(=O)[C@H](CCC(N)=O)NC(=O)[C@@H](NC(=O)[C@H](C)NC(=O)[C@@H]1CSSC[C@H](NC(=O)[C@@H](N)CCCCNC(=O)COCCOCCNC(=O)CC[C@H](NC(=O)CCCCCCCCCCCCCCCCCCC(=O)O)C(=O)O)C(=O)N[C@@H](CC(N)=O)C(=O)N[C@@H]([C@@H](C)O)C(=O)N[C@@H](C)C(=O)N[C@@H]([C@@H](C)O)C(=O)N1)[C@@H](C)O)C(=O)N1CCC[C@H]1C(=O)N[C@@H](CO)C(=O)N[C@@H](CO)C(=O)N[C@H](C(=O)N1CCC[C@H]1C(=O)N[C@H](C(=O)NCC(=O)N[C@@H](CO)C(=O)N[C@@H](CC(N)=O)C(=O)N[C@H](C(=O)N[C@@H](Cc1ccc(O)cc1)C(N)=O)[C@@H](C)O)C(C)C)[C@@H](C)O
notes: Synthetic analogue; also called compound 49
B5: N^ε1-[2-[2-[2-[[(4S)-4-carboxy-4-(19-carboxynonadecanoylamino)butanoyl]amino]ethoxy]ethoxy]acetyl]-[Arg17,Pro21,Pro27,Glu35]-h-amylin (peptide)
peptide: K([AEEA-γGlu-C20 diacid])CNTATCATQRLANFLRHSSPNFGAIPSSTNVGSETY-NH2
modifications: disulfide 2-7; N-terminus assumed
SMILES: CC[C@H](C)[C@H](NC(=O)[C@H](C)NC(=O)CNC(=O)[C@H](Cc1ccccc1)NC(=O)[C@H](CC(N)=O)NC(=O)[C@@H]1CCCN1C(=O)[C@H](CO)NC(=O)[C@H](CO)NC(=O)[C@H](Cc1c[nH]cn1)NC(=O)[C@H](CCCNC(=N)N)NC(=O)[C@H](CC(C)C)NC(=O)[C@H](Cc1ccccc1)NC(=O)[C@H](CC(N)=O)NC(=O)[C@H](C)NC(=O)[C@H](CC(C)C)NC(=O)[C@H](CCCNC(=N)N)NC(=O)[C@H](CCC(N)=O)NC(=O)[C@@H](NC(=O)[C@H](C)NC(=O)[C@@H]1CSSC[C@H](NC(=O)[C@@H](N)CCCCNC(=O)COCCOCCNC(=O)CC[C@H](NC(=O)CCCCCCCCCCCCCCCCCCC(=O)O)C(=O)O)C(=O)N[C@@H](CC(N)=O)C(=O)N[C@@H]([C@@H](C)O)C(=O)N[C@@H](C)C(=O)N[C@@H]([C@@H](C)O)C(=O)N1)[C@@H](C)O)C(=O)N1CCC[C@H]1C(=O)N[C@@H](CO)C(=O)N[C@@H](CO)C(=O)N[C@H](C(=O)N[C@@H](CC(N)=O)C(=O)N[C@H](C(=O)NCC(=O)N[C@@H](CO)C(=O)N[C@@H](CCC(=O)O)C(=O)N[C@H](C(=O)N[C@@H](Cc1ccc(O)cc1)C(N)=O)[C@@H](C)O)C(C)C)[C@@H](C)O
notes: Synthetic analogue; also called compound 26

molecular target: T1, human calcitonin receptor (human, UniProt P30988 25-474); test: SPA radioligand competition (125I-calcitonin), membranes of BHK cells with human calcitonin receptor
T1 construct: whole, on cells; Assay used cell membranes of the transfected BHK cells; also called hCTR; hCT
T1 sequence (looked up): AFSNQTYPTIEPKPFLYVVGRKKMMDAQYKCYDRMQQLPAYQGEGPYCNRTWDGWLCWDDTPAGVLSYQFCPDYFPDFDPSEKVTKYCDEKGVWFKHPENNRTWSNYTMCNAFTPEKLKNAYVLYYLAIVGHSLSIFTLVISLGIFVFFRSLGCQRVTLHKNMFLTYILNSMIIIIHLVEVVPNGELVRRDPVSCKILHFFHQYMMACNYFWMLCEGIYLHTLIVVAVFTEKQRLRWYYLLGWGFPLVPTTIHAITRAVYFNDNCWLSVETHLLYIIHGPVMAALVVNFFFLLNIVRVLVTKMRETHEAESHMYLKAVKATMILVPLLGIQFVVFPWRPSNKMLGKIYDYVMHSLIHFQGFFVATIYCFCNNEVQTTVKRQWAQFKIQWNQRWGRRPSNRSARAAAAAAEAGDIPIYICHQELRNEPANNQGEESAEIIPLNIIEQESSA
Outline: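 BHK hCTR membranes 35 ng/μL + SPA beads 0.05 mg/well; buffer 50 mM Hepes pH 7.4, 1 mM CaCl2, 5 mM MgCl₂, 0.1% OA, 0.02% Tween20. 120 min, 25° C., shaking. Scintillation count; IC50 by one-site binding competition.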

Binder	IC50 [nM]
B1	43.4
B2	48.8
B3	34.5
B4	12.9
B5	25.3

molecular target: T1, human calcitonin receptor; test: ratio IC50 hCTR / IC50 hAmylin-R of the two SPA competition assays; reference: human amylin receptor
Procedure: The resulting pellet was resuspended, homogenized and centrifuged (20.000 rpm, 15 min) in a buffer containing 20 mM Na-HEPES and 0.1 mM EDTA (pH 7.4, buffer 2). The resulting pellet was resuspended in buffer 2 and protein concentration was measured (BCA protein Assay, Pierce). The homogenate was kept cold during the whole procedure. The membranes were kept at −80° C. until use. The assay was performed in a 384 well Optiplate (PerkinElmer) in a total volume of 40 ul. Membranes were mixed with SPA beads. Final concentration of membranes 35 ng/μL final and SPA beads was 0.05 mg/well. Test-compounds were dissolved in DMSO and further diluted in assay buffer (50 mM Hepes, pH 7.4, 1 mM CaCl2, 5 mM MgCl₂, 0.1% OA and 0.02% Tween20). […] The final mixture was incubated with shaking at 400 rpm for 120 min at 25° C. prior to centrifugation (1500 rpm, 10 min). Samples were analyzed on TopCounter™ (Packard). The IC₅₀ was calculated using (one site binding competition analysis) GraphPad Prism5 as a measure of receptor affinity.
Membranes were prepared in the following way; the cells were rinsed with PBS and incubated with Versene for approximately 5 min before harvesting. The cells were flushed with PBS and the cell-suspension was centrifuged for 5 min at 1000 rpm. Cells were homogenized (Ultrathurrax) in a buffer containing 20 mM Na-HEPES and 10 mM EDTA (pH 7.4) and centrifuged at 20.000 rpm for 15 min. The resulting pellet was resuspended, homogenized and centrifuged (20.000 rpm, 15 min) in a buffer containing 20 mM Na-HEPES and 0.1 mM EDTA (pH 7.4, buffer 2). The resulting pellet was resuspended in buffer 2 and protein concentration was measured (BCA protein Assay, Pierce). The homogenate was kept cold during the whole procedure. The membranes were kept at −80° C. until use. Assay was performed in a 384 well Optiplate (PerkinElmer) in a total volume of 40 ul. Membranes were mixed with SPA beads.

Binder	Ratio hCT/hAmylin binding
B1	56.5
B2	50.3
B3	41.3
B4	10.8
B5	47.5
